# Publication PMC9884143 (2023)
# Positions count from the first letter of the chain named.
# B1: CoV2-YD-9 (antibody, V domains shown)
# VH: QVQLVESGGGLVQAGGSVRLSCAASGITFSNYASQWFRQTPGKAREFVAAISGGGTTSYAASVKGRFTLSRDNAKNTVYLQMNDLKFEDTAVYYCHTADLYSDYWGQGTQVTVS
# B2: CoV2-YD-3 (antibody, V domains shown)
# VH: QVQLVESGGGLVQAGGSLRLSCVASTTWFSNFGMGWYRQAPGKQRELVAGITYDGTTKYVDSVKGRSTIARDNAKNTVSLQMNSVKPGDTAIYYCNTYPSQLWNWGQGTQVTVS
# B3: CoV2-YD-33 (antibody, V domains shown)
# VH: DVQLVESGGGLVQAGGSLRLSCVASGSTDSNYVMGWHRQTSGKQSEWVASIESGGEKKIVDSVKGRFTISRDNAKNTVYLQMNSLKPEDTAVYYCFYERLAWDTSTYWGQGTQVTVS
# B4: CoV2-YD-34 (antibody, V domains shown)
# VH: B3 VH with H37Y, S45R, E52N, K57T, K58R, I59S, V60A, V63E, R71G, A91G
# B5: CoV2-YD-6 (antibody, V domains shown)
# VH: QVQLVESGGGSVQVGGSLRLSCAASGMTFSSATMAWYRQAPGKQREWVAGIGSGGRTSYASSMKGRFTISRDNAKNTVYLQMNSLKPEDTAVYYCYTALLSGGDYWGQGTQVTVS
# B6: CoV2-YD-2 (antibody, V domains shown)
# VH: QVQLVESGGGLVQPGGSLRLSCSISGFSFGYSAIGWFRQAPGLEREWVSTISSNGDDTVYADSVKGRFTISRDNAKNTVYLQMDSLKPEDTAVYYCARSFRWSRLPRDYDSWGQGTQVTVS
# B7: CoV2-YD-7 (antibody, V domains shown)
# VH: QVQLVESGGGLVQPGGSLRLSCTASVHPFSIYDMGWYRQAPGKQRVLVASISSDGTTDYADSVKGRFTISRDNAKNTVYLQMDSLKPEDTAVYYCNLAYVTWGQGTQVTVS
# B8: CoV2-YD-8 (antibody, V domains shown)
# VH: QVQLVESGGGLVQPGGSLSLSCAASGSMNSMNPMGWYRQAPGKEREVVARISSGGSTTYTDSVKGRFTISRDSAKNTVYLQMNSLKPDDTAVYYCYIIDDYGVQYWGKGTQVTVS
# Target: SARS-CoV-2 Spike S1 (Wuhan; S1 or RBD) (Severe acute respiratory syndrome …, UniProt P0DTC2)
# Test: SPR
binder,measurement,value
B1,Kd,0.0164 nM
B2,Kd,0.0409 nM
B3,Kd,3.54 nM
B4,Kd,0.541 nM
B5,Kd,2.91 nM
B6,Kd,3.68 nM
B7,Kd,3.24 nM
B8,Kd,0.126 nM
